Experimental data: PMC10727010 (Structure (London, England : 1993), 2023)
Values belong to the molecule of their own block, whether it stands above or below them.

What was measured:
[1] = target: uniformly 2H,13C,15N-labelled proliferating cell nuclear antigen (PCNA), used in NMR (human, UniProt P12004 1-259, uniformly 2H,13C,15N enriched); assay: NMR titration
PCNA = settings: PIP or APIM mutated; local ultraviolet irradiation; ref [5]; cited from earlier work

uniformly 2H,13C,15N-labelled proliferating cell nuclear antigen (PCNA), used in NMR, sequence (P12004 1-259): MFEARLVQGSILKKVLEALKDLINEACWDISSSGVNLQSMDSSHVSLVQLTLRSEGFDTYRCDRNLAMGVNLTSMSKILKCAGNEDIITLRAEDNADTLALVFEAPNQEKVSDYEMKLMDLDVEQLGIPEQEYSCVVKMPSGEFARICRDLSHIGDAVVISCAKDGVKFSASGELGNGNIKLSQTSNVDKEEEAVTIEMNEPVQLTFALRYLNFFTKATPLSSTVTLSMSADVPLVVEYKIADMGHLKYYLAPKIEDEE

- Kd [1]: 7.8 µM
B1: FBH1PIP peptide (residues 55-68 of F-box DNA helicase 1) (peptide)
peptide: GSQRCIPEFFLAGK

B2: F-box DNA helicase 1 (protein, UniProt Q8NFZ0 1-1043, looked up)
F-box DNA helicase 1: MRRFKRKHLTAIDCQHLARSHLAVTQPFGQRWTNRDPNHGLYPKPRTKRGSRGQGSQRCIPEFFLAGKQPCTNDMAKSNSVGQDSCQDSEGDMIFPAESSCALPQEGSAGPGSPGSAPPSRKRSWSSEEESNQATGTSRWDGVSKKAPRHHLSVPCTRPREARQEAEDSTSRLSAESGETDQDAGDVGPDPIPDSYYGLLGTLPCQEALSHICSLPSEVLRHVFAFLPVEDLYWNLSLVCHLWREIISDPLFIPWKKLYHRYLMNEEQAVSKVDGILSNCGIEKESDLCVLNLIRYTATTKCSPSVDPERVLWSLRDHPLLPEAEACVRQHLPDLYAAAGGVNIWALVAAVVLLSSSVNDIQRLLFCLRRPSSTVTMPDVTETLYCIAVLLYAMREKGINISNRIHYNIFYCLYLQENSCTQATKVKEEPSVWPGKKTIQLTHEQQLILNHKMEPLQVVKIMAFAGTGKTSTLVKYAEKWSQSRFLYVTFNKSIAKQAERVFPSNVICKTFHSMAYGHIGRKYQSKKKLNLFKLTPFMVNSVLAEGKGGFIRAKLVCKTLENFFASADEELTIDHVPIWCKNSQGQRVMVEQSEKLNGVLEASRLWDNMRKLGECTEEAHQMTHDGYLKLWQLSKPSLASFDAIFVDEAQDCTPAIMNIVLSQPCGKIFVGDPHQQIYTFRGAVNALFTVPHTHVFYLTQSFRFGVEIAYVGATILDVCKRVRKKTLVGGNHQSGIRGDAKGQVALLSRTNANVFDEAVRVTEGEFPSRIHLIGGIKSFGLDRIIDIWILLQPEEERRKQNLVIKDKFIRRWVHKEGFSGFKRYVTAAEDKELEAKIAVVEKYNIRIPELVQRIEKCHIEDLDFAEYILGTVHKAKGLEFDTVHVLDDFVKVPCARHNLPQLPHFRVESFSEDEWNLLYVAVTRAKKRLIMTKSLENILTLAGEYFLQAELTSNVLKTGVVRCCVGQCNNAIPVDTVLTMKKLPITYSNRKENKGGYLCHSCAEQRIGPLAFLTASPEQVRAMERTVENIVLPRHEALLFLVF
- co-localization of PCNA and FBH1 on motif mutation (PCNA): reduced co-localization of PCNA and FBH1 when either PIP or APIM is mutated

- Kd [1]: 276 µM
B3: FBH1APIM peptide (residues 805-815 of F-box DNA helicase 1) (peptide)
peptide: KDKFIRRWVHK
